This data set concerns the molecule itself. Briefly: oligomeric state by size exclusion chromatography (self-association). An excerpt: FIG. 1. Size exclusion chromatography of LanYFP (tetramer), dLanYFP (dimer), and mNeonGreen (monomer). The exemplary proteins were detected with 480 nm excitation and 530 nm emission, compared to mCherry (monomer) detected with 540 nm excitation and 620 nm emission. Each exemplary fluorescent protein was run simultaneously with mCherry as a size standard with detection at both wavelengths; mCherry consistently eluted with the same peak shape and retention time. Curves are normalized to peak fluorescence.
Purified and dialyzed fluorescent protein samples were diluted into 50 mM Tris-HCl pH 7.5, 100 mM NaCl and filtered through 0.2 μm filters immediately prior to injection into a Shimadzu Nexera UHPLC equipped with a Waters BEH200 1.7 μm 4.6×150 mm size exclusion column and 4.6×30 mm guard column. Samples were run in the same buffer at a flow rate of 0.3 ml per minute for a total run time of 20 minutes. Fluorescence of the eluted protein was detected with an RF-20Axs fluorescence detector (Shimadzu) with 480 nm and 540 nm excitation and 530 nm and 620 nm emission wavelengths. Each LanYFP or variant sample was co-injected with mCherry, which had been purified under identical conditions and which served as a monomeric size standard.

This note sets out measurements from US20140038267A1 (ALLELE BIOTECHNOLOGY AND PHARMACEUTICALS, published 2014).

B1: monomeric NeonGreen (mNeonGreen) (other)
chain: MVSKGEEDNMASLPATHELHIFGSINGVDFDMVGQGTGNPNDGYEELNLKSTKGDLQFSPWILVPHIGYGFHQYLPYPDGMSPFQAAMVDGSGYQVHRTMQFEDGASLTVNYRYTYEGSHIKGEAQVKGTGFPADGPVMTNSLTAADWCRSKKTYPNDKTIISTFKWSYTTGNGKRYRSTARTTYTFAKPMAANYLKNQPMYVFRKTELKHSKTELNFKEWQKAFTDVMGMDELYK
notes: not shown: N-terminal 6xHis tag and linker encoded by vector pNCS
Take B1: the binding result was “no binding”.
